Data on 16 substances can be found in the supplement of paper PMC5998384.

In data set [1] the test system is HeLa Kyoto. As to the kind of experiment: solubility change mitosis vs G1/S (difference of NP-40 vs SDS log2 ratios) (log2 ratio difference); higher = more soluble in mitosis.
For data set [2], the system named is HeLa Kyoto. As to the kind of experiment: solubility in G1/S (NP-40 vs SDS abundance) (log2 ratio); higher = more soluble. The conditions noted are these: cell cycle stage: G1/S.
In data set [3] the test system is HeLa Kyoto. As to the kind of experiment: melting temperature (median over replicates), in situ; higher = more thermally stable.
The subject of data set [4] is HeLa Kyoto. Nature of the data set: thermal stability score vs G1/S (z-score of summed log2 fold changes over temperatures); higher = more thermally stable than in G1/S.
Where [5] appears, read: cell cycle stage: early G1 (4.5 h after nocodazole release).
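Throughout, for melting temperature (median over replicates), in situ: HeLa Kyoto cells synchronized by double thymidine or nocodazole block, proteins quantified by TMT10plex mass spectrometry, three independent biological replicates.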
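Throughout, for solubility change mitosis vs G1/S (difference of NP-40 vs SDS log2 ratios): synchronized HeLa Kyoto cells (double thymidine block for G1/S, nocodazole release for mitosis), protein amounts in NP-40 versus SDS lysates quantified by mass spectrometry, three biological replicates.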
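Throughout, for solubility in G1/S (NP-40 vs SDS abundance): HeLa Kyoto cells arrested at G1/S by double thymidine block, proteins quantified by TMT10plex mass spectrometry in mild NP-40 versus SDS extracts, three biological replicates.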
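Throughout, for thermal stability score vs G1/S (z-score of summed log2 fold changes over temperatures): synchronized HeLa Kyoto cells, proteins quantified by TMT10plex mass spectrometry, three biological replicates, mitosis taken 0.5 h after nocodazole release, G1/S directly after double thymidine block.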

Chain of ABCF1 (chain, as listed by the source): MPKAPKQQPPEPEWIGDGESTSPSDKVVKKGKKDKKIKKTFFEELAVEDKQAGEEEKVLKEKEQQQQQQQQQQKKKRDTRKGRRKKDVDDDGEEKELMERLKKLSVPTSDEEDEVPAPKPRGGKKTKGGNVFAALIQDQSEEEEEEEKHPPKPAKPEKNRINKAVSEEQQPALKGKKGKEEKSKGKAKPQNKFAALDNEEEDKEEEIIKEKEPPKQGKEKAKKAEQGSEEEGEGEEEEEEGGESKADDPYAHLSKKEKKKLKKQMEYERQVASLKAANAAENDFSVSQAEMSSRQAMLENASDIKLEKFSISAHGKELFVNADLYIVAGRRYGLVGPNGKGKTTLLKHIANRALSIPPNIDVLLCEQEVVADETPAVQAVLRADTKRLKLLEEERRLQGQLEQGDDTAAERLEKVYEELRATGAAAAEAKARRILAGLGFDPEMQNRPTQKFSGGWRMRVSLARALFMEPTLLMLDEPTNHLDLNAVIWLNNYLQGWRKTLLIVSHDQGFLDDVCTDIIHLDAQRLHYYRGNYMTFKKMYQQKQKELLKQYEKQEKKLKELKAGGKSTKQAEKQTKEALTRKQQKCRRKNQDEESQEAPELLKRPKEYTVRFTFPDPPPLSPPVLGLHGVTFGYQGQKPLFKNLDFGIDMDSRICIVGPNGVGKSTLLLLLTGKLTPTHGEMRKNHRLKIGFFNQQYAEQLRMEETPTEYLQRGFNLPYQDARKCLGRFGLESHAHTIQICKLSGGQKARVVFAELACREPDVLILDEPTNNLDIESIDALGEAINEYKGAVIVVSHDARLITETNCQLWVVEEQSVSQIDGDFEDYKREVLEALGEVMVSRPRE
Chain of AKAP8 (chain, as listed by the source): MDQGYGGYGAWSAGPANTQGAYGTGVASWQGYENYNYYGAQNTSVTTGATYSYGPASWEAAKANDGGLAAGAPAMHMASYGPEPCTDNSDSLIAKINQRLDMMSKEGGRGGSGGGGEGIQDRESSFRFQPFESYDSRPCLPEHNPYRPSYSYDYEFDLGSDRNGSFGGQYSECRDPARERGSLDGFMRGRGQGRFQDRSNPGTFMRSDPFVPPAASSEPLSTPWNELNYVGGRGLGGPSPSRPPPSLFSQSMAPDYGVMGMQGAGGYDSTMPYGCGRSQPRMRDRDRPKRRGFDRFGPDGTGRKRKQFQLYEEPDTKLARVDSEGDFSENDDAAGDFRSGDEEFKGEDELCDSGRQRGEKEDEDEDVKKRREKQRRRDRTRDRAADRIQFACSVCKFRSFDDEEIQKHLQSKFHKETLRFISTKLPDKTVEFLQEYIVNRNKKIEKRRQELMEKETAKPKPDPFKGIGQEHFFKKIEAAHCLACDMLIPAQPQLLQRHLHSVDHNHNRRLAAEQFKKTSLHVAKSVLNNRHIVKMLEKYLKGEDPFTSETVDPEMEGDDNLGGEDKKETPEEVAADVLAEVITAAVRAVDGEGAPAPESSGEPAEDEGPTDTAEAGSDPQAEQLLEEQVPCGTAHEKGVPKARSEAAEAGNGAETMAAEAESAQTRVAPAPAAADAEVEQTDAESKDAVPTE
Chain of ADCK3 (chain, as listed by the source): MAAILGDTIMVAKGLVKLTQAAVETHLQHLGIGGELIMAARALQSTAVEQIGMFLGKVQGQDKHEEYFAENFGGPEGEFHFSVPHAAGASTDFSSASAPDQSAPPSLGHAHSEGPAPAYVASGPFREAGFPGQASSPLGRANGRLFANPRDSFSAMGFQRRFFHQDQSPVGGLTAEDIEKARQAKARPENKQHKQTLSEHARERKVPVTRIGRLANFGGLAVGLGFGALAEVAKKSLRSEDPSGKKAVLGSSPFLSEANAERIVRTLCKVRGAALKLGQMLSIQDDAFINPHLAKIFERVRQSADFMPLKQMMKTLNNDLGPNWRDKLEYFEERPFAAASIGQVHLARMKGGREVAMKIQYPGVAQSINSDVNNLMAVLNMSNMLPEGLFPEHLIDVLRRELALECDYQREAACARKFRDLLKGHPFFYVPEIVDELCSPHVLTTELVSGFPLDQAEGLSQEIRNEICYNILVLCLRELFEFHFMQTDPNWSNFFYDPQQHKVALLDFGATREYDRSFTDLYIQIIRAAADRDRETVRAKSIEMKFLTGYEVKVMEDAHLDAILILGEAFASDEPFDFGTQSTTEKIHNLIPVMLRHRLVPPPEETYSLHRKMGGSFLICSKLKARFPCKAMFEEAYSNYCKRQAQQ
Chain of APTX (chain, as listed by the source): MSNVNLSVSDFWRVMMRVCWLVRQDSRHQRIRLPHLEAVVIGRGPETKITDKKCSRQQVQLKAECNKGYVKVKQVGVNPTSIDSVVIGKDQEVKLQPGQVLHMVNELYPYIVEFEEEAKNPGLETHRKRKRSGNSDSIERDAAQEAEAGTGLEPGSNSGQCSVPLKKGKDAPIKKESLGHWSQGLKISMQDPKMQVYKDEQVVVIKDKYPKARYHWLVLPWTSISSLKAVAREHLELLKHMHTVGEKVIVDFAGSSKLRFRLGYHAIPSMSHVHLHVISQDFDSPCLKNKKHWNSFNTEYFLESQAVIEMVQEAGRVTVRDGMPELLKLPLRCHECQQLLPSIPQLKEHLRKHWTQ
Chain of ANTXR1 (chain, as listed by the source): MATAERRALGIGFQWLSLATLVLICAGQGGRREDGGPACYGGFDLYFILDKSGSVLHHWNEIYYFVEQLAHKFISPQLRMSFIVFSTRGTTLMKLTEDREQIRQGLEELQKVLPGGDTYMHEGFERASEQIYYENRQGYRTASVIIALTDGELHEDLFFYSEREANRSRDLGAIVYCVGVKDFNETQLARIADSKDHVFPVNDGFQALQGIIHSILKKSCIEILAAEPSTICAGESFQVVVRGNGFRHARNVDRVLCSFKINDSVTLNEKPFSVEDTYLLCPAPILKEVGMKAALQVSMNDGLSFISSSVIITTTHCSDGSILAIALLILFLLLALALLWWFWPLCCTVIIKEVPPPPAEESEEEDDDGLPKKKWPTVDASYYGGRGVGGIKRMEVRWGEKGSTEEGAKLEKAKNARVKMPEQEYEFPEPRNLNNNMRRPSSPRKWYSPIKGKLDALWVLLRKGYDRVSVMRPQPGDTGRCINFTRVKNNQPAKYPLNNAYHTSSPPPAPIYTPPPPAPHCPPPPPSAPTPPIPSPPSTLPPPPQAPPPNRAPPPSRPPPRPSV
Chain of ARHGAP4 (chain, as listed by the source): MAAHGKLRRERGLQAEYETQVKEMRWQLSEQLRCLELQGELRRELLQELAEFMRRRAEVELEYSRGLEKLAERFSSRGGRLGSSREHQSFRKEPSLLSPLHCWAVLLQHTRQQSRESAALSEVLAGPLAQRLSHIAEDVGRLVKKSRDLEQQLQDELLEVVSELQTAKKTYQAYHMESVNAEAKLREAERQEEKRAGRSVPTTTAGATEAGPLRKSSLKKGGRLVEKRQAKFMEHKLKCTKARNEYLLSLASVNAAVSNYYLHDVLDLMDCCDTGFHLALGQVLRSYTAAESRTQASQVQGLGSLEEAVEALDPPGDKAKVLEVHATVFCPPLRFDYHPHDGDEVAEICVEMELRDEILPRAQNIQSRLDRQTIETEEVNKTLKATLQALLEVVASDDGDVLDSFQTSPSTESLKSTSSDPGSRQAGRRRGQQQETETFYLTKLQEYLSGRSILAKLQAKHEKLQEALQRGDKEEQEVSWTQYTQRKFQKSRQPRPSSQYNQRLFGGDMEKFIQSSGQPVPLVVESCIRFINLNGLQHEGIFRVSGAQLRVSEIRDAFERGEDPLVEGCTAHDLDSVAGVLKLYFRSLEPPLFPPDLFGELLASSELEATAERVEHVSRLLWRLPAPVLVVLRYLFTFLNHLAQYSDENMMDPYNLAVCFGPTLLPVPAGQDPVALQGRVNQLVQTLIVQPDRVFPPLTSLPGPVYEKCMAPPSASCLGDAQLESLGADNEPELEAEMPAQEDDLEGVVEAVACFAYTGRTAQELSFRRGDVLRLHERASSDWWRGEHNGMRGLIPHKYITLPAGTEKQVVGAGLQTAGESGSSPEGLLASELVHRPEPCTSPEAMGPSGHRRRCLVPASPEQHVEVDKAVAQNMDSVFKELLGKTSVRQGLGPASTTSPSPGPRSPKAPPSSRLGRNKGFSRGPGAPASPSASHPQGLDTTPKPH

For ABCD1, the “solubility change mitosis (log2)” value in data set [1] was -0.0995. Moreover, the “solubility in G1/S (log2)” value in data set [2] is -0.353. Moreover, the melting temperature in data set [3] (cell cycle stage: G1/S) was 49.9 °C; in data set [3] (cell cycle stage: mitosis) it was 49.7 °C. Besides, the thermal stability score in data set [4] (setting [5]) was 0.954; in data set [4] (cell cycle stage: mitosis) it was 0.963.

ABCF1: the “solubility change mitosis (log2)” value in data set [1] was 0.0453. In data set [2], the “solubility in G1/S (log2)” value was -0.133. Also, the melting temperature in data set [3] (cell cycle stage: G1/S) was determined as 52.7 °C; in data set [3] (cell cycle stage: mitosis) it was 52.3 °C. Further, the thermal stability score was -2.34 in data set [4] (setting [5]) and -2.94 in data set [4] (cell cycle stage: mitosis).

On to ADCK3, for which the “solubility change mitosis (log2)” value in data set [1] was -0.0659. Also, the “solubility in G1/S (log2)” value in data set [2] amounted to 0.231. In addition, the melting temperature came out at 51.1 °C in data set [3] (cell cycle stage: G1/S) and 50 °C in data set [3] (cell cycle stage: mitosis). Besides, the thermal stability score was 0.477 in data set [4] (setting [5]) and -0.51 in data set [4] (cell cycle stage: mitosis).

For AHNAK2, the “solubility change mitosis (log2)” value in data set [1] is -0.0597. Also, in data set [2], the “solubility in G1/S (log2)” value came to 0.073. Besides, the melting temperature is 53 °C in data set [3] (cell cycle stage: G1/S) and 53.5 °C in data set [3] (cell cycle stage: mitosis). In addition, the thermal stability score was found to be 0.749 in data set [4] (setting [5]) and 3.16 in data set [4] (cell cycle stage: mitosis).

For the substance AKAP8, the “solubility change mitosis (log2)” value in data set [1] turned out to be 0.113. Further, the “solubility in G1/S (log2)” value in data set [2] is -0.14. Further, the melting temperature was 49 °C in data set [3] (cell cycle stage: G1/S) and 49.8 °C in data set [3] (cell cycle stage: mitosis). Moreover, the thermal stability score in data set [4] (setting [5]) stood at 1.87; in data set [4] (cell cycle stage: mitosis), 2.22.

As for ANKRD17, the “solubility change mitosis (log2)” value in data set [1] was 0.0244. Moreover, the “solubility in G1/S (log2)” value in data set [2] is -0.13. The melting temperature turned out to be 49.8 °C in data set [3] (cell cycle stage: G1/S) and 49.9 °C in data set [3] (cell cycle stage: mitosis). In addition, the thermal stability score in data set [4] (setting [5]) was -0.291; in data set [4] (cell cycle stage: mitosis), 0.712.

With ANTXR1, the “solubility change mitosis (log2)” value in data set [1] was determined as 0.0236. The “solubility in G1/S (log2)” value in data set [2] amounted to 0.0506. The melting temperature in data set [3] (cell cycle stage: G1/S) and in data set [3] (cell cycle stage: mitosis) was 55 °C each time. In addition, the thermal stability score is -1.21 in data set [4] (setting [5]) and -3.82 in data set [4] (cell cycle stage: mitosis).

Regarding APOB, the “solubility change mitosis (log2)” value in data set [1] was 0.0239. For the same substance, the “solubility in G1/S (log2)” value in data set [2] was -0.404. Further, the melting temperature was found to be 57.6 °C in data set [3] (cell cycle stage: G1/S) and 55.5 °C in data set [3] (cell cycle stage: mitosis). Besides, the thermal stability score in data set [4] (setting [5]) is -3.15; in data set [4] (cell cycle stage: mitosis), -0.312.

Regarding APTX, in data set [1], the “solubility change mitosis (log2)” value is 0.0501. Besides, in data set [2], the “solubility in G1/S (log2)” value is -0.219. Moreover, the melting temperature in data set [3] (cell cycle stage: G1/S) came out at 48.5 °C; in data set [3] (cell cycle stage: mitosis), 50.7 °C. The results for the thermal stability score in data set [4] (setting [5]) and in data set [4] (cell cycle stage: mitosis) were 0.58 and 1.59, respectively.

In the case of ARFGEF1, the “solubility change mitosis (log2)” value in data set [1] was -0.109. Further, the “solubility in G1/S (log2)” value in data set [2] was -0.319. Further, the melting temperature in data set [3] (cell cycle stage: G1/S) amounted to 50.8 °C; in data set [3] (cell cycle stage: mitosis) it was 50.1 °C. Besides, the thermal stability score was found to be 0.51 in data set [4] (setting [5]) and 0.0301 in data set [4] (cell cycle stage: mitosis).

Regarding ARHGAP4, the “solubility change mitosis (log2)” value in data set [1] is -0.000167. Moreover, the “solubility in G1/S (log2)” value in data set [2] is 0.0702. In addition, the melting temperature in data set [3] (cell cycle stage: G1/S) worked out at 52.5 °C; in data set [3] (cell cycle stage: mitosis) it was 50.3 °C. In addition, the thermal stability score in data set [4] (setting [5]) was determined as 0.224; in data set [4] (cell cycle stage: mitosis), 0.251.

Consider ARHGAP21, for which the “solubility change mitosis (log2)” value in data set [1] was 0.156. Moreover, the “solubility in G1/S (log2)” value in data set [2] is -0.453. Besides, the melting temperature in data set [3] (cell cycle stage: G1/S) was determined as 47.6 °C; in data set [3] (cell cycle stage: mitosis), 50.2 °C. The thermal stability score in data set [4] (setting [5]) came to 0.0615; in data set [4] (cell cycle stage: mitosis), 0.748.

Take ARID1B: the “solubility change mitosis (log2)” value in data set [1] amounted to 0.0332. Also, the “solubility in G1/S (log2)” value in data set [2] is -0.143. The melting temperature came to 48.8 °C in data set [3] (cell cycle stage: G1/S) and 50.2 °C in data set [3] (cell cycle stage: mitosis). In addition, the thermal stability score in data set [4] (setting [5]) was found to be 0.573; in data set [4] (cell cycle stage: mitosis), 1.11.

Turning to ASCC1, the “solubility change mitosis (log2)” value in data set [1] is 0.0348. Besides, in data set [2], the “solubility in G1/S (log2)” value was -0.115. The melting temperature in data set [3] (cell cycle stage: G1/S) worked out at 50.3 °C; in data set [3] (cell cycle stage: mitosis) it was 50.7 °C. Moreover, the thermal stability score was 1.88 in data set [4] (setting [5]) and 1.1 in data set [4] (cell cycle stage: mitosis).

For ATM, the “solubility change mitosis (log2)” value in data set [1] is -0.141. Moreover, the “solubility in G1/S (log2)” value in data set [2] was -0.339. For the same substance, the melting temperature in data set [3] (cell cycle stage: G1/S) is 51.7 °C; in data set [3] (cell cycle stage: mitosis), 51.3 °C. Moreover, the thermal stability score in data set [4] (setting [5]) stood at 0.333; in data set [4] (cell cycle stage: mitosis), 0.0333.

Consider ATRX, for which the “solubility change mitosis (log2)” value in data set [1] is 0.492. Besides, the “solubility in G1/S (log2)” value in data set [2] is -1.33. For the same substance, the melting temperature in data set [3] (cell cycle stage: G1/S) is 49.2 °C; in data set [3] (cell cycle stage: mitosis) it was 51.4 °C. Moreover, the thermal stability score in data set [4] (setting [5]) was -0.452; in data set [4] (cell cycle stage: mitosis), 0.516.
